From PMC9805127

Substrate: O=C(O)C(=O)O
Experiment: purified protein
Settings: pH 4.0 (authors' preferred pH; also measured at pH 3 and 5), 100 mM buffer, air-saturated, 25 °C, 0.025 μM HvOXO, 0.125 μM PaDa-I as coupling enzyme

B1: HvOXO (Hordeum vulgare) (protein)
chain: SDPDPLQDFCVADLDGKAVSVNGHTCKPMSEAGDDFLFSSKLTKAGNTSTPNGSAVTELDVAEWPGTNTLGVSMNRVDFAPGGTNPPHIHPRATEIGMVMKGELLVGILGSLDSGNKLYSRVVRAGETFVIPRGLMHFQFNVGKTEAYMVVSFNSQNPGIVFVPLTLFGSDPPIPTPVLTKALRVEAGVVELLKSKFAGGS
- Km: 730 ± 90 µM
- kcat: 1.52 s⁻¹
- kcat/Km: 2080 M⁻¹ s⁻¹
